US8022178B2, “Modified self-assembling peptides” (Massachusetts Institute of Technology, priority 2006, dated 2011)

Columns and labels:
[1] = Isoelectric plot and rheological data when 0.1 N NaOH is added (pH of gel formation); type: physicochemical; conditions: 1% solution, 0.1 N NaOH solution added
Text: At the point of pH 3.6, the viscous solution become gel and has a higher G′ (stiffness), G″ (viscosity) value. When the pH is increased, the gel breaks into small pieces and it becomes a solution with precipitated peptides. At lower pH, the peptide forms fibers and the fibers make the solution viscous. When the pH becomes higher, and approaches the pI value, the peptide fibers lose their charge and aggregate to form gel. The same gel formation happens when the peptide charge is screened by salts in a salt-containing solution (e.g., a solution containing a gellation agent or an iso-osmotic solute). Once the gel is formed, the fiber structure is broken into pieces to form a precipitate particle.
(§1) A comparison of the pH dependent property of 1% Ac(RADA)4GGFHRRIKA CONH2 (SEQ ID NO. 6) solution (Code: FHR), self assembling peptide sequence was compared with the heparin-binding motif. FIG. 12 depicts the isoelectric plot and corresponding rheological data when 0.1 N NaOH solution is added to FHR solution to adjust pH. The net charge of the peptide molecule is kept ≧2 when pH<10. Until at point of pH 5.7, the solution keeps viscous state. This movement of pH point where the peptide solution become gel is controlled by the charge induced by the additional motif to the self-assembling peptide. The induced charge prevents the peptide to aggregate to form the gel. Thus, the cell and the peptide solution can be mixed near neutral pH. After complete mixing, the gel formation can be made by adding salt containing solution (e.g., a solution containing a gellation agent or an iso-osmotic solute).
FIG. 18 depicts the isoelectric plot and Rheological data of PFS 1% solution when 0.1 N NaOH solution is added. 1% Ac(RADA)4GGSKPPGTSS-CONH2 solution (Code: SKP, peptide sequence: SEQ ID NO. 7) is a hydrogel composed of peptides with a self-assembling sequence and positively-charged functional motif. Although the pI value of the peptide is 9.74 and it keeps positive charge at near pH 7 range, the gel is formed at the point of pH 4.5. […]

[2] = pI and charge of the self-assembling peptide; type: physicochemical
Method: as §1
FIG. 18 depicts the isoelectric plot and Rheological data of PFS 1% solution when 0.1 N NaOH solution is added. 1% Ac(RADA)4GGSKPPGTSS-CONH2 solution (Code: SKP, peptide sequence: SEQ ID NO. 7) is a hydrogel composed of peptides with a self-assembling sequence and positively-charged functional motif. Although the pI value of the peptide is 9.74 and it keeps positive charge at near pH 7 range, the gel is formed at the point of pH 4.5. This is because the charge of the molecule around pH 7 range is +1 and smaller than the charge of Ac(RADA)4GGFHRRIKA CONH2 (FHR) (bigger than 3). The charge of the whole peptide should be larger than 2 when the cell is mixed. This pH should be somewhere in 6-8 in order to minimize the damage to the cells. As this sequence is heparin-binding motif, the fiber can attach to the heparin molecule which is abundant at cell surface. This heparin-binding motif provides a specific anchor to the cell. As described in Example 1, this binding synergistically works with the other binding motif (e.g., RGD) to induce biological stimuli for cell proliferation and differentiation. This effect is not limited to the sequences previously describe, but the other motifs, including -XBBXBX- and -XBBBXXBX- sequences. […]

[3] = biological target: bFGF (Homo sapiens, UniProt P09038); assay: bFGF retention in peptide matrix (ELISA); conditions: bFGF 175 ng/insert loaded after gelation; during PBS washing and culturing; FIG. 19
Method: The effect of protein retention and delivery using the self-assembling peptide were studied (Table 11). bFGF was used as a model protein. The retention of bFGF in different peptide matrix in different charge condition was measured by ELISA after washing by PBS. After washing out unbound bFGF, the effect of protein retention to self-assembling peptide matrix were evaluated the using cell culturing of HUVEC (human umbilical vein endothelial cells).
The peptide solutions provided in Table 12 were loaded in the culture inserts (10 mm diameter, Millicell-CM, Millipore) and gels were formed using PBS. After gelation, bFGF solution in PBS was added inside and outside and plated for overnight. bFGF was loaded at 175 ng/insert. After loading bFGF, the PBS inside and outside the inserts were exchanged three times (2 hours, 9 hours and 12 hours) to remove unbound bFGF (Washing). After the washing, the PBS was exchanged to the cell culture medium (EGM-2-MV, Camblex) without attached growth factor (bFGF, VEGF and EGF) and placed more than a day (such that the fluid contained in the gel is exchanged from PBS to cell culture medium), then HUVEC (human umbilical vein endothelial cells) were plated at 7.5×10^4 cells on the inserts and cultured for three days.
Cell culturing using cell culture medium (EGM-2-MV) was used without attached growth factor on peptide matrix as negative control. Cell culturing using cell culture medium (EGM-2-MV) was used with attached growth factor on peptide matrix without loading growth factor as positive control. The bFGF concentration in washing buffer (PBS) and cell culture medium (EGM-2-MV) was measured using ELISA. The washing buffer and cell culture medium were exchanged at each measurement period (2 hours, 9 hours and 12 hours for washing, and at the cell seeding (D0), Day 1 (D 1), Day 2 (D2) and Day 3 (D3)). Growth factor retention rate was calculated by accumulating the amount of measured bFGF.

[4] = system: HUVEC (human umbilical vein endothelial cells); assay: HUVEC cultured 2-dimensionally on hydrogels: cell attachment and morphology; type: cell-based; set-up: key to Capillary like morphology: weak: +; medium: ++; strong: +++; very strong: ++++; conditions: HUVEC cultured on hydrogels
Method: The effect of functional modified peptide matrix to HUVEC (human umbilical vein endothelial cells) was evaluated by culturing cells 2-dimensionally on the gel.
The peptide solutions shown in Table 19 were loaded in the culture inserts (10 mm diameter, Millicell-CM, Millipore) and gels were formed using cell culture medium (EGM-2-MV, Camblex). Collagen-1 and Matrigel were used as control matrices. HUVEC (human umbilical vein endothelial cells) were plated at 8×10^4 cells on the inserts and cultured up to 7 Days.

[5] = system: neurons; conditions: neurons grown on surface (Holmes 2000); cited from earlier work

Sequence of bFGF (P09038 143-288, species assumed): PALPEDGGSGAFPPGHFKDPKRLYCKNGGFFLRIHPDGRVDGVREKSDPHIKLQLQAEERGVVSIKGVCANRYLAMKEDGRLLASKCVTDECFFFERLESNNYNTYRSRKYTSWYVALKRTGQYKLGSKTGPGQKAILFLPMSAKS

Substance	pH at which the viscous peptide solution becomes gel [1]	charge [2]	pI [2]	bFGF (growth factor) retention rate [3]	Cell attachment [4]	neurite outgrowth and synapse formation [5]	charge of the molecule around pH 7 range ([2]; around pH 7)	net charge of the peptide molecule ([2]; when pH<10)	Capillary like morphology [4]
Ac(RADA)4-CONH2	3.6	neutral	6.1	high in the order of KFQ-2P, FHR-2P, RAD-2P then DGR-2P	+ (+: Weak(<20%))	able to serve as a substrate for neurite outgrowth and formation of functionally active synapses			
Ac(RADA)4GGFHRRIKA-CONH2 (Ac-RADARADARADARADAGGFHRRIKA-NH2) [FHR = 1% solution; FHR-2P = 2% solution]	5.7	positively charged	11.32,	high in the order of KFQ-2P, FHR-2P, RAD-2P then DGR-2P	++ (++: 20-50%)		> 3	≥ 2	+
